This is an account of results in article PMC9418424.

In the experiment the target is (AcA4)2KD amphiphilic peptide ((Ac-Ala-Ala-Ala-Ala)2-Lys-Asp-OH). Nature of the experiment: dynamic light scattering.

For “(AcA4)2KD amphiphilic peptide ((Ac-Ala-Ala-Ala-Ala)2-Lys-Asp-OH)”, the critical aggregation concentration is 0.8 mM.
